{"source": "patent US20140038292", "tested_on": "T1, Tol1 transposase (851 aa) (Oryzias latipes)", "T1 sequence": "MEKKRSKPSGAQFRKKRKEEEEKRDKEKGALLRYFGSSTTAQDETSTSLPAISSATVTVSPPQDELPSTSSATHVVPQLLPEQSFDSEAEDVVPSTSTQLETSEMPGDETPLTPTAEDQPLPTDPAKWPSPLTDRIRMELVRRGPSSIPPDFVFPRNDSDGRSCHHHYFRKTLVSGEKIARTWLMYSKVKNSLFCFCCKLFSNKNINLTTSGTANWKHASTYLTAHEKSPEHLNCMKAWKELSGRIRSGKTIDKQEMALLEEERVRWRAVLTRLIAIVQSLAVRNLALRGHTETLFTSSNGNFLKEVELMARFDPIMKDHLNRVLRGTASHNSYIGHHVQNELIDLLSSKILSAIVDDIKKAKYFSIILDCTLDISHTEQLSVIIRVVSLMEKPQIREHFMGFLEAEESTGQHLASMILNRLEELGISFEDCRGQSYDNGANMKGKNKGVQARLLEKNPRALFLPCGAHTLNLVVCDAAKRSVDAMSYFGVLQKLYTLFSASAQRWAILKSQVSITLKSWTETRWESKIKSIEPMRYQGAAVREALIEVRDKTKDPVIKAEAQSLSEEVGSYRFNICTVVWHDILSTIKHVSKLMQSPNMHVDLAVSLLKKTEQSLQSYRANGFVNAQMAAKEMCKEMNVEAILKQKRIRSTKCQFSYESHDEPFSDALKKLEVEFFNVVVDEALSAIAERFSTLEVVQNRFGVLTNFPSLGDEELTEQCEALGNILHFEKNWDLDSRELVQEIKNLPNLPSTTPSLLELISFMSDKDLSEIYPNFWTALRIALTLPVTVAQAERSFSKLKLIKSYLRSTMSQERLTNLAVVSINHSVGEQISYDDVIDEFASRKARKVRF", "assay": "cell_activity", "conditions": "HeLa, donor 200 ng, helper 800 ng; 8 bp TSD at insertions", "data": [{"substance": "Tol1-tyr element (1855 bp), donor plasmid", "values": [{"measurement": "activity (net G418-resistant colonies)", "result": 3660}]}]}
